The test addresses HLA-A*02 molecules at the surface of T1 cells (human (endogenous in T1 cells)). In words: flow cytometry on cells; T1 cells pulsed with 20 µM NY_(157-165) peptide (three pulses, stability control; or freshly for 2 h, day control); HLA-A*02/NY_(157-165) complexes detected with a complex-specific F(ab) and a PE-conjugated second antibody 24, 48 and 96 h after the last loading. Background: A flow cytometer gives signals particle by particle.

Drawing on PMC3688974, this text covers percent of the complexes of freshly peptide-pulsed T1 cells still detected for one substance.

In turn, “NY-ESO-1_(157-165) peptide (from UniProt P78358 157-165)” showed a percent of the complexes of freshly peptide-pulsed T1 cells still detected of 64%.
